In patent US20170044260A1 (Innovent, published 2017):
Numbering of substitutions follows the chain as printed. Names may count otherwise. Blank lines part the entries; values can stand above or below the molecule they belong to.

Legend:
cynoPD-1_Fc = cynoPD-1_Fc (cyno, UniProt B0LAJ3 25-170); assay: bio-layer interferometry (ForteBio), monovalent: Fab in solution, cynoPD-1_Fc on sensor tip
cynoPD-1_Fc (cyno) = cynoPD-1_Fc (cyno) (UniProt B0LAJ3); assay: as above
human PD-1 on cells [1] = target: T1, human PD-1 on cells (human, UniProt Q15116 25-288); assay: flow cytometry blocking: CHO cells with human PD-1, 100 nM antibody, then PD-L2-FITC (competitor); remaining PD-L2-FITC signal
human PD-1 on cells [2] = target: T1, human PD-1 on cells; assay: cell-based or functional assay
human PD-1 on cells [3] = target: T1, human PD-1 on cells; assay: flow cytometry on CHO cells with human PD-1, PE-labelled secondary antibody
Method: Cells are then washed 3×, and are incubated with a secondary antibody (PE-labelled, at final concentration of 5 μg/ml) in PBS 1% BSA for 30 min on ice (protected from light). Cells are washed 3× and analyzed via flow cytometry. Flow cytometry is performed on an Accuri C6 system (BD Biosciences) and MFIs are calculated on the C6 software. EC50s are calculated on Graphpad software.

human PD-1 on cells [4] = target: T1, human PD-1 on cells; assay: cell-based or functional assay; remark: listed apart in the source
hPD-1_HIS [5] = target: T2, hPD-1_HIS (human, UniProt Q15116 25-167, limits assumed); assay: bio-layer interferometry, antibody on the sensor tip; reference nivolumab and pembrolizumab
T2 construct: not shown: His tag

hPD-1_HIS [6] = target: T2, hPD-1_HIS; assay: bio-layer interferometry (ForteBio), monovalent: hPD-1_HIS in solution, IgG on sensor tip
Method: Briefly, ForteBio affinity measurements are performed by loading IgGs online onto AHQ sensors. Sensors are equilibrated off-line in assay buffer for 30 min and then monitored on-line for 60 seconds for baseline establishment. Sensors with loaded IgGs are exposed to 100 nM antigen for 5 min, afterwards they are transferred to assay buffer for 5 min for off-rate measurement. Kinetics are analyzed using the 1:1 binding model.

[7] = target: T3, human PD-1 (antigen of the avid KD measurement by MSD) (human, UniProt Q15116 25-167, limits assumed); assay: MSD solution equilibrium titration, avid KD against human PD-1; avid KD, IgG1 format
Method: (§1) Equilibrium affinity measurements are performed as previously described (Estep, P., et al., MAbs, 2013. 5(2): p. 270-8). […] Antibodies diluted at 20 nM in PBS are coated onto standard bind MSD-ECL plates overnight at 4° C. or at room temperature for 30 min. Plates are blocked with BSA for 30 min whilst shaking at 700 rpm. Plates are then washed 3× with wash buffer (PBSF+0.05% Tween 20). SET samples are applied and incubated on the plates for 150 s with shaking at 700 rpm followed by one wash. Antigen captured on a plate is detected with 250 ng/mL sulfotag-labeled streptavidin in PBSF by incubation on the plate for 3 min. The plates are washed three times with wash buffer and are then read on the MSD Sector Imager 2400 instrument using 1× Read Buffer T with surfactant. The percent free antigen is plotted as a function of titrated antibody in Prism and fit to a quadratic equation to extract the KD. To improve throughput, liquid handling robots are used throughout MSD-SET experiments, including for SET sample preparation.

b-PD-1 monomer [8] = target: T4, b-PD-1 monomer (human, UniProt Q15116 25-167, limits assumed, biotinylated (b-); site not stated); assay: MSD solution equilibrium titration, monovalent KD against human PD-1; monovalent KD, IgG1 format
T4 construct: also called human PD-1; antigen of the MSD assay
Method: as §1

hPD-1_Fc [9] = target: T5, hPD-1_Fc (human, UniProt Q15116 25-167, limits assumed); assay: bio-layer interferometry, PD-1_Fc on the sensor tip; reference nivolumab and pembrolizumab
T5 construct: also called human PD-1_Fc; not shown: Fc part

hPD-1_Fc [10] = target: T5, hPD-1_Fc; assay: bio-layer interferometry (ForteBio), monovalent: Fab in solution, hPD-1_Fc on sensor tip
b-PD-1 monomer [11] = target: T4, b-PD-1 monomer; assay: MSD solution equilibrium titration, monovalent KD against human PD-1
Method: as §1

[12] = target: T3, human PD-1 (antigen of the avid KD …); assay: MSD solution equilibrium titration, avid KD against human PD-1
Method: as §1

[13] = target: T6, human PD-1-Fc (R&D Systems) (human, UniProt Q15116 25-167); assay: SPR (Biacore T200), human PD-1-Fc immobilized, antibody stored 4 weeks at 25° C. as analyte, 37° C.
T6 construct: not shown: Fc part of the bought fusion protein; not described
Method: (§2) All sample analytes are run in 3-fold series dilutions from their starting concentration (90 nM), 8 total dilutions with one duplicate at a middle concentration and a zero. The analysis is performed at 37° C. The contact time for each sample is 180 sec at 30 μl/min. The dissociation time: 300 seconds for 5 lower concentrations and 1200 (Fab), or 2400 (T=0) or 3000 (4 weeks 4° C., 25° C., 40° C.) seconds for 3 higher concentrations. The immobilized surface is regenerated for 6-8 seconds with 0.4% SDS at 30 ul/min, and then stabilized for 5 seconds. Binding kinetics are analyzed using the Biacore T200 Evaluation software (Version 3.0). Data are referenced to a blank flow cell, and the data are fit to a 1:1 binding model.

[14] = target: T7, biotinylated PD-1-Fc fusion protein (human, UniProt Q15116 25-170, limits assumed, biotinylated; site not stated); assay: ELISA blocking: antibody mixed with biotinylated PD-1-Fc, plate coated with PD-L2-Fc (competitor)
T7 construct: also called human PD-1; not shown: Fc part; not described

[15] = target: T7, biotinylated PD-1-Fc fusion protein; assay: ELISA blocking: antibody mixed with biotinylated PD-1-Fc, plate coated with PD-L1-Fc (competitor)
[16] = target: T6, human PD-1-Fc (R&D Systems); assay: SPR (Biacore T200), human PD-1-Fc immobilized, antibody stored 4 weeks at 40° C. as analyte, 37° C.
Method: as §2

[17] = target: T6, human PD-1-Fc (R&D Systems); assay: SPR (Biacore T200), human PD-1-Fc immobilized, antibody as analyte, 37° C.
Method: as §2

[18] = target: T6, human PD-1-Fc (R&D Systems); assay: SPR (Biacore T200), human PD-1-Fc immobilized, antibody stored 4 weeks at 4° C. as analyte, 37° C.
Method: as §2

T1 sequence (Q15116 25-288 limits assumed): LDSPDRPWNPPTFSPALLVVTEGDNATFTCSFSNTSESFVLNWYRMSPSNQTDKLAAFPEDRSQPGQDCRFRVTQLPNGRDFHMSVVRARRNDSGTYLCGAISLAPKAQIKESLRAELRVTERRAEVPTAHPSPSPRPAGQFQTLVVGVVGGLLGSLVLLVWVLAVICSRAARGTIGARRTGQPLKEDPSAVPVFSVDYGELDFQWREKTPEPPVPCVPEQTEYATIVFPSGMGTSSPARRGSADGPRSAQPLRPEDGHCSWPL
cynoPD-1_Fc, sequence (B0LAJ3 entry or part of it limits assumed): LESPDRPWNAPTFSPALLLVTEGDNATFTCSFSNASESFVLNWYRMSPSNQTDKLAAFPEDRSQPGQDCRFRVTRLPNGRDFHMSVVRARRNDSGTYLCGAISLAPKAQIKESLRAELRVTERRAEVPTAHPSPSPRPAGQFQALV
T2 sequence (Q15116 25-167 limits assumed): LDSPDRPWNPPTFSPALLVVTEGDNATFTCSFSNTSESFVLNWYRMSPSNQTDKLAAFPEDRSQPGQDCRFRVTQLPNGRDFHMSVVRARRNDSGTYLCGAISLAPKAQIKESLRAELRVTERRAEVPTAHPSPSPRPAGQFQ
T5 sequence (Q15116 25-167 limits assumed): as above
T6 sequence (Q15116 25-167 limits assumed): as above
T7 sequence (Q15116 25-170 limits assumed): as the sequence (B0LAJ3 entry or part of it limits assumed) above, with E2D, A10P, L19V, A35T, R75Q, A144T counted along it
T3 sequence (Q15116 25-167 limits assumed): as the sequence (Q15116 25-167 limits assumed) above
T4 sequence (Q15116 25-167 limits assumed): as above
cynoPD-1_Fc (cyno), sequence (B0LAJ3 entry or part of it limits assumed): as the sequence (B0LAJ3 entry or part of it limits assumed) above

Kd (cynoPD-1_Fc): 1.2 nM
Molecule: Fab of Nivolumab in IgG1 format

Kd (cynoPD-1_Fc (cyno)): 0.47 nM
Molecule: Fab of Pembrolizumab in IgG1 format

MFI (PD-L2-FITC) (human PD-1 on cells [1]): 183000 MFI
Molecule: control IgG (antibody)

Kd (cynoPD-1_Fc): 0.59 nM
fold lower KD than nivolumab and pembrolizumab (hPD-1_Fc [9]): 4 fold
Kd (hPD-1_Fc [10]): 0.49 nM
B5: Fab of Antibody G in IgG1 format (Fab, V domains shown)
VH: QVQLVQSGAEVKKPGSSVRVSCKASGGTLSSYAISWVRQAPGQGLEWMGLIIPMFGAAGYAQRFQGRVTITADESASTAYMELSSLRSEDTAVYYCARAEHSSTGTFDYWGQGTLVTVSS
VL: DIQMTQSPSSVSASVGDRVTITCRASQGISSWLAWYQQKPGKAPKLLISAASSLQSGVPSRFSGSGSGTDFTLTISSLQPEDFATYYCQQANHLPFTFGGGTKVEIK
notes: also called Fab in solution (row Antibody G in IgG1 format)

Further lines, the molecule ahead of its results:

B1: Antibody G (S228P IgG4) (antibody, V domains shown)
VH: B5 VH
VL: DIQMTQSPSSVSASVGDRVTITCRASQGISSWLAWYQQKPGKAPKLLISAASSLQSGVPSRFSGSGSGTDFTLTISSLQPEDFATYYCQQANHLPFTFGGGTKVEIKR
IFN-γ secretion fold change vs. IgG control, 0.01 nM IgG (mixed lymphocyte reaction) (human PD-1 on cells [2]): 1.17 fold
IFN-γ secretion fold change vs. IgG control, 0.1 nM IgG (mixed lymphocyte reaction) (human PD-1 on cells [2]): 1.91 fold
IFN-γ secretion fold change vs. IgG control, 1 nM IgG (mixed lymphocyte reaction) (human PD-1 on cells [2]): 2.48 fold
IFN-γ secretion fold change vs. IgG control, 10 nM IgG (mixed lymphocyte reaction) (human PD-1 on cells [2]): 2.04 fold
IFN-γ secretion fold change vs. IgG control, 100 nM IgG (mixed lymphocyte reaction) (human PD-1 on cells [2]): 2.07 fold
EC50 (human PD-1 on cells [3]): 1.76 nM
IL-2 secretion fold change vs. IgG control, 0.01 nM IgG (mixed lymphocyte reaction) (human PD-1 on cells [4]): 1.36 fold
IL-2 secretion fold change vs. IgG control, 0.1 nM IgG (mixed lymphocyte reaction) (human PD-1 on cells [4]): 1.91 fold
IL-2 secretion fold change vs. IgG control, 1 nM IgG (mixed lymphocyte reaction) (human PD-1 on cells [4]): 3.12 fold
IL-2 secretion fold change vs. IgG control, 10 nM IgG (mixed lymphocyte reaction) (human PD-1 on cells [4]): 2.62 fold
IL-2 secretion fold change vs. IgG control, 100 nM IgG (mixed lymphocyte reaction) (human PD-1 on cells [4]): 2.45 fold

B2: Antibody D in IgG1 format (antibody, V domains shown)
VH: B5 VH with R19K, L29F, G56D, A57T, R63K, T69A, A72V, A76T
VL: B5 VL
notes: IgG1 format, expressed in yeast; also called Antibody D in an IgG1 format and expressed in yeast
fold lower KD than nivolumab and pembrolizumab (hPD-1_HIS [5]): 6 fold
Kd (hPD-1_HIS [6]): 0.31 nM
Kd [7]: 0.0009 nM
Kd (b-PD-1 monomer [8]): 0.012 nM

B3: Fab of Antibody D in IgG1 format (Fab, V domains shown)
VH: B5 VH with R19K, L29F, G56D, A57T, R63K, T69A, A72V, A76T
VL: B5 VL
notes: also called Fab in solution (row Antibody D in IgG1 format)
Kd (cynoPD-1_Fc): 0.67 nM
fold lower KD than nivolumab and pembrolizumab (hPD-1_Fc [9]): 3 fold
Kd (hPD-1_Fc [10]): 0.56 nM

B4: Antibody G in IgG1 format (antibody, V domains shown)
VH: B5 VH
VL: B5 VL
notes: IgG1 format, expressed in yeast; also called Antibody G in an IgG1 format and expressed in yeast
Kd (b-PD-1 monomer [11]): 0.014 nM
Kd [12]: 0.001 nM
fold lower KD than nivolumab and pembrolizumab (hPD-1_HIS [5]): 4 fold
Kd (hPD-1_HIS [6]): 0.44 nM

B6: Antibody D (S228P IgG4) (antibody, V domains shown)
VH: B5 VH with R19K, L29F, G56D, A57T, R63K, T69A, A72V, A76T
VL: B1 VL
Kd [13]: 0.102 nM
koff [13]: 3.6e-05 s⁻¹
kon [13]: 354000 M⁻¹ s⁻¹
IC50 [14]: 0.34 nM
IC50 [15]: 0.3 nM
IFN-γ secretion fold change vs. IgG control, 0.01 nM IgG (mixed lymphocyte reaction) (human PD-1 on cells [2]): 1.32 fold
IFN-γ secretion fold change vs. IgG control, 0.1 nM IgG (mixed lymphocyte reaction) (human PD-1 on cells [2]): 1.94 fold
IFN-γ secretion fold change vs. IgG control, 1 nM IgG (mixed lymphocyte reaction) (human PD-1 on cells [2]): 2.26 fold
IFN-γ secretion fold change vs. IgG control, 10 nM IgG (mixed lymphocyte reaction) (human PD-1 on cells [2]): 1.99 fold
IFN-γ secretion fold change vs. IgG control, 100 nM IgG (mixed lymphocyte reaction) (human PD-1 on cells [2]): 1.72 fold
Kd [16]: 0.118 nM
koff [16]: 4.22e-05 s⁻¹
kon [16]: 358000 M⁻¹ s⁻¹
EC50 (human PD-1 on cells [3]): 0.978 nM
IL-2 secretion fold change vs. IgG control, 0.01 nM IgG (mixed lymphocyte reaction) (human PD-1 on cells [4]): 1.25 fold
IL-2 secretion fold change vs. IgG control, 0.1 nM IgG (mixed lymphocyte reaction) (human PD-1 on cells [4]): 1.64 fold
IL-2 secretion fold change vs. IgG control, 1 nM IgG (mixed lymphocyte reaction) (human PD-1 on cells [4]): 2.45 fold
IL-2 secretion fold change vs. IgG control, 10 nM IgG (mixed lymphocyte reaction) (human PD-1 on cells [4]): 2.63 fold
IL-2 secretion fold change vs. IgG control, 100 nM IgG (mixed lymphocyte reaction) (human PD-1 on cells [4]): 3.08 fold
Kd [17]: 0.104 nM
koff [17]: 2.98e-05 s⁻¹
kon [17]: 286000 M⁻¹ s⁻¹
Kd [18]: 0.103 nM
koff [18]: 3.86e-05 s⁻¹
kon [18]: 377000 M⁻¹ s⁻¹
